Reference: patent publication US20250361305A1 (ORIONIS BIOSCIENCES, published 2025)

Key:
[1] = target: T1, PD-L1 antigen (ELISA of Example 2) (human, UniProt Q9NZQ7 19-239, limits assumed); assay: ELISA, signal on PD-L1 antigen over control
[2] = target: T1, PD-L1 antigen (ELISA of Example 2); assay: ELISA, signal on PD-L1 antigen

T1 sequence (Q9NZQ7 19-239 limits assumed): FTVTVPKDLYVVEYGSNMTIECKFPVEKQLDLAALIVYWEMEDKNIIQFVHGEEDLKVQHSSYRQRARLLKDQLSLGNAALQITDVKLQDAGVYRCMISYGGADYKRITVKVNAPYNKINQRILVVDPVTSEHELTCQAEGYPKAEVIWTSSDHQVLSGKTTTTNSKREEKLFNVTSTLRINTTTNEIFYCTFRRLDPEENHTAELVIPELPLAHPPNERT

A/control [1]	ELISA [2]	Binder
33.2	4	2LIG48 (VHH, PD-L1 VHH) VHH: QVQLQESGGGLVQPGGSLRLSCAASGFTFNDYAMSWVRQAPGKGLEWVSGIRSNGGYTNYADSVKGRFTISRDNAKNTLYLQMNSLKSEDTAVYYCAQGYYCSGYGCYPGQGTQVTVSS
47.3	4	3LIG30 (VHH, PD-L1 VHH) VHH: QVQLQESGGGTVQAGGSLRLSCAASGFTFNDYAMSWVRQAPGKGLEWVSGIRSNGGYTNYADSVKGRFTISRDNAKNTLYLQMNSLKSEDTAVYYCAQGYYCSGYGCYPGQGTQVTVSS
26.4	3.02	2LIG16 (VHH, PD-L1 VHH) VHH: QVQLQESGGGLVQPGGSLRLSCAASGFTFDDYGMSWVRQAPGKGLEWVSAIRWNGGSTNYADSVKGRFTISRDNAKNTLYLQMNSLKSEDTAVYYCAQGYYCSGYGCPRGQGTQVTVSS
3.78	0.429	2LIG27 (VHH, PD-L1 VHH) VHH: QVQLQESGGGVVQAGGSLRLSCTASGTIFSINRMDWFRQAPGKQRELVALITSDGTPTYADSAKGRFTISRDNTKKTVSLQMNSLKPEDTAVYYCHVSSGVYNYWGQGTQVTVSS
5.13	1.03	2LIG97 (VHH, PD-L1 VHH) VHH: QVQLQESGGGLVQAGESLRLSCTASGTIFSINRMDWFRQAPGKQRELVALITSDGTPTYADSAKGRFTISRDNTKKTVSLQMNSLKPEDTAVYYCHVSSGVYNYWGQGTQVTVSS
9.75	1.46	2LIG3 (VHH, PD-L1 VHH) VHH: QVQLQESGGGLVQAGGSLRLSCTASGTIFSINHMDWFRQAPGKQRELVALITSDGFPTYADSAKGRFTISRDNTKKTVSLQMNSLKPEDTAVYYCHVSSGVYNYWGQGTQVTVSS
3.59	0.568	2LIG34 (VHH, PD-L1 VHH) VHH: QVQLQESGGGSVQAGGSLRLSCTASGTIFSINRMDWFRQAPGKQRELVALITSDGTPTYADSAKGRFTISRDNTKKTVSLQMNSLKPEDTAVYYCHVSSGVYNYWGQGTQVTVSS
4.39	0.429	3LIG8 (VHH, PD-L1 VHH) VHH: QVQLQESGGGLVQPGGSLRLSCTASGTIFSINRMDWFRQAPGKQRELVALITSDGTPTYADSAKGRFTISRDNTKKTVSLQMNSLKPEDTAVYYCHVSSGVYNYWGQGTQVTVSS
9.16	2.11	2LIG99 (VHH, PD-L1 VHH) VHH: QVQLQESGGGLVQAGGSLRLSCTASGTIFSINRMDWFRQAPGKQRELVALITSDGTPAYADSAKGRFTISRDNTKKTVSLQMNSLKPEDTAVYYCHVSSGVYNYWGQGTQVTVSS
37.6	3.64	3LIG7 (VHH, PD-L1 VHH) VHH: QVQLQESGGGLVQAGGSLRLSCAASGFTFSSYGMSWVRQTPGKGPEWVSAIDSGGGSTSYADSVKGRFTISRDNAKNTLYLQMNSLKPEDTAVYYCAQGYYCSGYGCSDYWGQGTQVTVSS
37.7	3.66	3LIG9 (VHH, PD-L1 VHH) VHH: QVQLQESGGGLVQPGGSLRLSCAASGFTFSSYGMSWVRQTPGKGPEWVSAIDSGGGSTSYADSVKGRFTISRDNAKNTLYLQMNSLKPEDTAVYYCAQGYYCSGYGCSDYWGQGTQVTVSS
32.6	3.55	2LIG109 (VHH, PD-L1 VHH) VHH: QVQLQESGGGLVQSGGSLRLSCKTSGFTFSSYGMSWVRQTPGKGPEWVSAIDSGGGSTSYADSVKGRFTISRDNAKNTLYLQMNSLKPEDTAVYYCAQGYYCSGYGCSDYWGQGTQVTVSS
8.18	0.844	2LIG35 (VHH, PD-L1 VHH) VHH: QVQLQESGGGLVQPGGSLRLSCAASGFTFSSYGMSWVRQTPGKGPEWVSAIDSGGGSTSYADSVKGRFTTSRDNAKNTLYLQMNSLKPEDTAVYYCAQGYYCSGYGCSDYWGQGTQVTVSS
40.9	3.96	3LIG29 (VHH, PD-L1 VHH) VHH: QVQLQESGGGLVQAGGSMRLSCAASGFTFSSYGMSWVRQTPGKGPEWVSAIDSGGGSTSYADSVKGRFTISRDNAKNTLYLQMNSLKPEDTAVYYCAQGYYCSGYGCSDYWGQGTQVTVSS
34.6	3.77	2LIG29 (VHH, PD-L1 VHH) VHH: QVQLQESGGGLVQTGGSLRLSCAASGFTFSSYGMSWVRQTPGKGPEWVSAIDSGGGSTSYADSVKGRFTISRDNAKNTLYLQMNSLKPEDTAVYYCAQGYYCSGYGCSDYWGQGTQVTVSS
40	3.5	3LIG18 (VHH, PD-L1 VHH) VHH: QVQLQESGGGLVQPGGSLRLSCAASGFNLDPYAIAWFRQAPGKEREEVSCISSSDVGTYYADSVKGRFTISRDNAKKTVYLQMNSLKPEDTAVYYCATDGYYYCSDYPHPLYWGQGTQVTVSS
27.2	2.88	2LIG89 (VHH, PD-L1 VHH) VHH: QVQLQESGGGLVQPGGSLRLSCAASGFNLDPYAIAWFRQAPGKEREEVSCISSSDVGTYYADSVKGRFTISRDNTKKTVYLQMNSLKPEDTAVYYCATDGYYYCSDYPHPLYWGQGTQVTVSS
33.3	4	2LIG139 (VHH, PD-L1 VHH) VHH: QVQLQESGGGLVQPGGSLRLSCAVSGFNLDPYAIAWFRQAPGKEREEVSCISSSDVGTYYADSVKGRFTISRDNAKKTVYLQMNSLKPEDTAVYYCATDGYYYCSDYPHPLYWGQGTQVTVSS
23.6	2.11	2LIG65 (VHH, PD-L1 VHH) VHH: QVQLQESGGGLVQAGGSLRLSCAASGFNLDPYAIAWFRQAPGKEREEVSCISSSDVGTYYADSVKGRFTISRDNAKKTVYLQMNSLKPEDTAVYYCATDGYYYCSDYPHPLYWGQGTQVTVSS
34.6	3.73	2LIG127 (VHH, PD-L1 VHH) VHH: QVQLQESGGGLVQPGGSLRLSCAASGFNLDPYAIGWFRQAPGKEREEVSCISSGDGSKYYADSVKGRFTMSRDNAKKTVYLQMNSLKPEDTAVYYCATDGYYYCSDYPHPLYWGQGTQVTVSS
33.6	3.8	2LIG86 (VHH, PD-L1 VHH) VHH: QVQLQESGGGLVQPGGSLRLSCAASGFTFDYYAIGWFRQAPGKEREEVSCISGSDSSTYYADSVKGRFTIVRDNAQNTVYLQMNSLKPEDTAIYYCAVTGWRTCRGLNEYDYWGQGTQVTVSS
22.6	2.67	2LIG85 (VHH, PD-L1 VHH) VHH: QVQLQESGGGLVQPGGSLRLSCAASGFTFTAYAMSWFRQAPGKEREEVSCINSSDGSTYYADSVKGRFTISRDNAKNTVYLQMNSLKPEDTAVYHCATDGWRDCTWSNEYAYWGQGTQVTVSS
3.86	0.51	2LIG2 (VHH, PD-L1 VHH) VHH: QVQLQESGGGLVQAGGSLRLSCAASGFTLDYYAIGWFRQAPGKEREEVSCISSSDGSTYYADSVKGRFTISRDNAKNTVNLQMNSLKPEDTAVYYCATDGWSSCRHGINEYLYWGQGTQVTVSS
7.16	0.58	3LIG3 (VHH, PD-L1 VHH) VHH: QVQLQESGGGLVQPGGSLRLSCAASGFTLDYYAIGWFRQAPGKEREEVSCISSSDGSTYYADSVKGRFTISRDNAKNTVNLQMNSLKPEDTAVYYCATDGWSSCRHGINEYLYWGQGTQVTVSS
19.1	1.76	3LIG33 (VHH, PD-L1 VHH) VHH: QVQLQESGGGLVQPGTSLRLSCAASGFTLDYYAIGWFRQAPGKEREEVSCISSSDGSTYYADSVKGRFTISRDNAKNTVNLQMNSLKPEDTAVYYCATDGWSSCRHGINEYLYWGQGTQVTVSS
9.59	1.11	2LIG30 (VHH, PD-L1 VHH) VHH: QVQLQESGGGLVQPGGSLRLSCAASGKIFSGNDMGWYRQAPGKQRELVGIITSGGITDYADAVKGRFTISRDNAKNMMYLQMNSLKPEDTAVYYCNMRDRTIWWGQGTQVTVSS
12.9	2.23	2LIG189 (VHH, PD-L1 VHH) VHH: QVQLQESGGGLVQAGGSLRLSCAASGKIFSGNDMGWYRQAPGKQRELVGIITSGGITDYADAVKGRFTISRDNAKNMMYLQMNSLKPEDTAVYYCNMRDRTIWWGQGTQVTVSS
4.22	0.415	2LIG176 (VHH, PD-L1 VHH) VHH: QVQLQESGGGLVQAGGSLRLSCAASESIFSIEAMGWYRQAPGKQRELVAAIFGGGFTNYADSVKGRFTISRDNANRTVYLQMNSLKPEDTAVYYCNADLVSGSSRLYDYWGQGTQVTVSS
4.55	0.469	2LIG22 (VHH, PD-L1 VHH) VHH: QVQLQESGGGLVQPGGSLRLSCAASGFTLDYYAINWFRQAPGKEREEVSCISSSDGSTYYADSVKGRFTISRDNAKNTVYLQMNSLKPEDTAVYYCATSGWRLCRPTDEYDYSYWGQGTQVTVSS
33.2	3.03	3LIG28 (VHH, PD-L1 VHH) VHH: QVQLQESGGGLVQPGGSLRLSCAASGFTLDYYAINWFRQAPGKEREEVSCISSSDGSTYYADSVKGRFTISRDNAKNTVYLQMNSLKPEDTAVYYCATSGWRLCRPTDEYDYLYWGQGTQVTVSS
